This assay has as its system LPS-induced release of endogenous TNFα. The assay can be described thus: Mouse model for septic shock, LPS-induced TNFα release in serum of genetically humanized mice. It is filed as in vivo. Particulars: antibody 250 μg/kg in 200 μL PBS injected 1h before LPS 50 μg per mouse; serum 2h after LPS. How it is done:
In the following study, ELISA-based TNFα release assays were performed to verify the inhibitory effects of the antibodies of the invention on LPS-induced release of endogenous TNFα in a mouse model for septic shock. The experiment was conducted using genetically humanized mice, in which parts of the mouse genomic iRhom2 DNA (exons which encode for the antibody binding site) were replaced by the corresponding human genomic DNA sequences. All animal experiments were approved by the Institutional Animal Care and Use Committee of the Hospital for Special Surgery and Weill Cornell Medicine.
On day 1, one group of mice was injected with the antibodies of the invention at a concentration of 250 μg/kg in 200 μL PBS. A second group was injected with the same volume of PBS only (200 μl PBS per mouse). 1h later all mice were subjected to an injection of LPS (Sigma, USA) at a concentration of 50 μg/200 μL per mouse (250 ng/μL). All mice were closely monitored and euthanized after 2h by CO2 inhalation. […]
For measuring TNFα release, Mouse TNF-α Uncoated ELISA Kit (Invitrogen, USA) was used. […] The color reaction was stopped by the addition of 100 μl 2N sulfuric acid (Sigma, USA) and the ELISA plate was read at the wavelength of 450 nm using a Multiskan Titertek Plate reader (VWR, USA).

B1: 42-B-02: humanized antibody binding human iRhom2; HCVD SEQ ID NO 33, LCVD SEQ ID NO 37 (antibody, V domains shown)
VH: QVTLRESGPALVKPTQTLTLTCTFSGFSLSTFGRGVGWIRQPPGKALEWLAHIWWDDEKYYNSALKSRLTISKDTSKNQVVLTITNMDPVDTATYYCARIQNYGSNYWYFDVWGQGTLVTVSS
VL: AIQLTQSPSSLSASVGDRVTITCRASSRISYMFWYQQKPGKAPKVLIYDTSNLASGVPSRFSGSGSGTDYTLTISSLQPEDFATYYCQQWNSYPLTFGQGTKLEIK
modifications: antibody sequences
Regarding B1, the “LPS-induced release of TNFα in serum of genetically humanized mice, percent release (buffer treated control animals set to 100%)” value is 17.3%.

The record behind these values is US12404345B2, “Humanized antibodies against iRHOM2” (SCIRHOM GMBH, priority 2021, dated 2025).
